Experimental data published in patent US20180250426A1 (GEORGIA STATE UNIVERSITY RESEARCH FOUNDATION, published 2018).

Legend:
GRPR (GRP receptor) [1] = target: T1, GRPR (GRP receptor) (UniProt P30550 1-384, limits assumed); assay: confocal immunofluorescence with a CD2 antibody and Alexa Fluor 488 on GRPR-high PC-3 and DU145 cells at 37 °C; GRPR-low H441 cells as control
T1 construct: whole, on cells; also called gastrin release peptide receptor
Procedure: (§1) In the second day, fresh medium was changed. Contrast agents were incubated with cells at different time point at 37° C. […] After cells were rinsed in PBS for three times, 0.2% Triton X-100 was added to permeablize cells for 10 minutes. […] After three time washes, CD2 antibody was used as primary antibody.

HER2 = target: T2, HER2 (human, UniProt P04626 23-1255); assay: immunofluorescence staining of AU565 cells (HER2 high) with PAbPGCA1
T2 construct: whole, on cells; also called cell surface HER2
From the text: We used two cancer cell lines for the binding analyses. AU565 is derived from breast carcinoma. EMT6 is a mouse mammary tumor cell line. AU565 cells express very high levels of HER2. The EMT is regarded as a HER2 negative cell line.

GRPR (GRP receptor) [2] = target: T1, GRPR (GRP receptor); assay: confocal immunofluorescence with a CD2 antibody and Alexa Fluor 488 on GRPR-high PC-3 and DU145 cells; CA1-CD2 without the bombesin sequence as control
Procedure: as §1

T1 sequence (P30550 whole entry): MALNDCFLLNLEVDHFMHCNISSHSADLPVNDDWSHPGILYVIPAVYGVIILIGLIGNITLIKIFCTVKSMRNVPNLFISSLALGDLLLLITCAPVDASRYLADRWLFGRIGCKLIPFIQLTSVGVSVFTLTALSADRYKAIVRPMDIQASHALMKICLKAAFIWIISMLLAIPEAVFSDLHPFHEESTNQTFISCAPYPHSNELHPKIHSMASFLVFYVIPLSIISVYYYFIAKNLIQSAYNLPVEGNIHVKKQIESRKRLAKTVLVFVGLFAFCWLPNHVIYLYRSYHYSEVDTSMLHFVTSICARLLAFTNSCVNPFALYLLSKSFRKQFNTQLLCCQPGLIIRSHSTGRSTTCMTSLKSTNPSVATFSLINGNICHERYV

Row | binding result (GRPR (GRP receptor) [1]) | binding result (HER2) | binding result (GRPR (GRP receptor) [2]) | Binder
1 | binds |  |  | CA1.CD2-52I-Bom (designed binder, also called CA1.Bom) RDSGTVWGALGHGIELNIPNFQMTDDIDEVRWERGSTLVAEFKRKMKPFLKSGGSGGGNQWAVGHLMGGSGGGAFEIDANGDLDIKNLTRDDSGTYNVTVYSTNGTRILNKALDLRILE
2 |  | no binding | no binding | CA1.CD2 (designed binder, domain: domain 1; 12 kDa, expressed in E. coli; in most assays loaded with Gd3+; also called Gd-CA1.CD2) RDSGTVWGALGHGIELNIPNFQMTDDIDEVRWERGSTLVAEFKRKMKPFLKSGAFEIDANGDLDIKNLTRDDSGTYNVTVYSTNGTRILNKALDLRILE
